The values that follow come from PMC8588329.

For the test, the target named is recombinant Plasmodium knowlesi lactate dehydrogenase (Plasmodium knowlesi). In words: SEC; Superdex 200 10/300 GL, 50 mM phosphate buffer pH 7.4, 250 mM NaCl, 0.50 mL/min; elution volume 13 mL set against a calibration curve of protein standards.

Consider “recombinant Plasmodium knowlesi lactate dehydrogenase (enzyme)”, for which the stoichiometry N (commonly the number of molecules, sites or subunits per partner or assembly) stood at 4.
